Measured values published in patent US20190169286A1 (Chugai, published 2019).

Legend:
[1] = target: T1, soluble human FcγRIIIa (His-tagged) (human, UniProt P08637 17-208); assay: SPR (Biacore T200), antibody captured on rProtein L on a CM4 chip, soluble His-tagged FcγR injected, HBS-EP+, 20 °C
T1 construct: also called hFcγRIIIa; not shown: His tag
Experimental: (§1) Soluble FcγRIa and FcγRIIIa in both human and cynomolgus monkey were produced in the form of His-tagged molecules by methods known to those of ordinary skill in the art. […] Next, soluble FcγRIa or FcγRIIIa was injected with a running buffer (used as a reference solution), and was made to interact with the antibodies captured onto the sensor chip. HBS-EP+(GE Healthcare) was used as the running buffer, and HBS-EP+ was also used to dilute the soluble FcγRIa or FcγRIIIa. […] All measurements were carried out at 20° C.

[2] = target: T2, soluble human FcγRIa (His-tagged) (human, UniProt P12314 16-292, limits assumed); assay: as above
T2 construct: also called hFcγRIa; not shown: His tag
Experimental: as §1

[3] = target: T3, soluble cynomolgus monkey FcγRIIIa (His-tagged) (cynomolgus monkey, UniProt Q8SPW2 17-208); assay: as above
T3 construct: also called cynoFcγRIIIa; not shown: His tag
Experimental: as §1

human IL-8 [4] = target: T4, human IL-8 (human, UniProt P10145 23-99, limits assumed); assay: SPR Biacore T200, Protein A/G capture, pH 5.8, 37C;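 as to KD: antibodies captured by Protein A/G amine-coupled onto a CM4 sensor chip, with kinetic parameters derived using Biacore T200 Evaluation Software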
T4 construct: also called hIL-8; hIL8
Experimental: (§2) An appropriate amount of Protein A/G (PIERCE) was immobilized onto the Sensor chip CM4 (GE Healthcare) by the amine coupling method and the antibodies of interest were captured. […] To regenerate the sensor chip, 25 mM NaOH and 10 mM glycine-HCl (pH 1.5) were used. […] The BIACORE T200 Evaluation Software (GE Healthcare) was used to calculate each parameter.

human IL-8 [5] = target: T4, human IL-8; assay: SPR Biacore T200, Protein A/G capture, pH 7.4, 40C;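 as to KD: antibodies captured via Protein A/G, which was amine-coupled to a CM4 sensor chip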
Experimental: as §2

human IL-8 [6] = target: T4, human IL-8; assay: SPR Biacore T200, Protein A/G capture, pH 5.8, 37C; remark: listed apart in the source;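 as to KD: antibodies captured by Protein A/G amine-coupled onto a CM4 sensor chip, with kinetic parameters derived using Biacore T200 Evaluation Software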
Experimental: as §2

human IL-8 [7] = target: T4, human IL-8; assay: SPR Biacore T200, Protein A/G capture, IL-8 analyte, pH 5.8, 37C
Experimental: (§3) An appropriate amount of Protein A/G (PIERCE) was immobilized onto Sensor chip CM4 (GE Healthcare) by the amine coupling method and the antibodies of interest was captured. […] To regenerate the sensor chip, 10 mM glycine-HCl at pH 1.5 was used. All measurements were carried out at 37° C. […] The BIACORE T200 Evaluation Software (GE Healthcare) was used to calculate each parameter.

human IL-8 [8] = target: T4, human IL-8; assay: as above; remark: listed apart in the source
Experimental: as §3

human IL-8 [9] = target: T4, human IL-8; assay: SPR Biacore T200, Protein A/G capture, IL-8 analyte, pH 7.4, 37C
Experimental: as §3

human IL-8 [10] = target: T4, human IL-8; assay: as above; remark: listed apart in the source
Experimental: as §3

human IL-8 [11] = target: T4, human IL-8; assay: SPR IL-8 binding level per 1000 RU captured Ab, pH 7.4, 40C; 1 week 50C in PBS vs initial
human IL-8 [12] = target: T4, human IL-8; assay: SPR Biacore T200, 37C; ratio between pH 7.4 and pH 5.8
Experimental: as §3

human IL-8 [13] = target: T4, human IL-8; assay: SPR Biacore T200, Protein A/G capture, pH 7.4, 40C; remark: listed apart in the source;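 as to KD: antibodies captured via Protein A/G, which was amine-coupled to a CM4 sensor chip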
Experimental: as §2

T2 sequence (P12314 16-292 limits assumed): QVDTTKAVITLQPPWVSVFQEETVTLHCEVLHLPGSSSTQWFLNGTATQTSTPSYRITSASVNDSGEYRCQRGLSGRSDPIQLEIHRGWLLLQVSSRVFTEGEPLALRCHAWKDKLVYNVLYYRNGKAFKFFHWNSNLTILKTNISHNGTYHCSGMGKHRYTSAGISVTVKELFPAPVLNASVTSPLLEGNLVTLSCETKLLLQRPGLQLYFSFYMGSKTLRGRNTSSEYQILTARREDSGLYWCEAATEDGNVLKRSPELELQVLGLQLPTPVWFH
T3 sequence (Q8SPW2 17-208 limits assumed): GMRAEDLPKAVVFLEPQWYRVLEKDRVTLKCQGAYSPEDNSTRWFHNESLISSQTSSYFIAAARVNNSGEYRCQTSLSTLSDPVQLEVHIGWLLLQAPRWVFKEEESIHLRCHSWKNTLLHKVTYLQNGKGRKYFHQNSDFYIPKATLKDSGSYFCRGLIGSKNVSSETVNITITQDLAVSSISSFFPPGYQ
T4 sequence (P10145 23-99 limits assumed): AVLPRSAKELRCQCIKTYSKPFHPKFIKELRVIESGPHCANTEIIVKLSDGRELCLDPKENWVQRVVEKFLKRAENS
T1 sequence (P08637 17-208 limits assumed): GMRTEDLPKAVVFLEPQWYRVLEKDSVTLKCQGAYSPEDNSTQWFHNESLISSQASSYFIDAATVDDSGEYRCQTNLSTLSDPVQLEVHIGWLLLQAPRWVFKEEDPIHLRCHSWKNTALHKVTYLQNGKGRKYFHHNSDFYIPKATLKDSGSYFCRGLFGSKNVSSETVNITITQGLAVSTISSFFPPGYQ

B1: H1009/L395-F1886s (H1009-F1886s / L395-k0MT) (antibody)
heavy: QVQLVESGGGLVQPGGSLRLSCAASGFTFSDYYLSWVRQAPGKGLEWVGLIRNKDNYHTPEYSASVKGRFTISRDDSKNSLYLTMSDLKTEDTAVYYCARENHRYDVELAYWGQGTLVTVSSASTKGPSVFPLAPSSKSTSGGTAALGCLVKDYFPEPVTVSWNSGALTSGVHTFPAVLQSSGLYSLSSVVTVPSSSLGTQTYICNVNHKPSNTKVDKKVEPKSCDKTHTCPPCPAPELRRGPKVFLFPPKPKDTLMISRTPEVTCVVVDVSHEDPEVKFNWYVDGVEVHNAKTKPREEQYNSTYRVVSVLTVLHQDWLNGKEYKCKVSNKALPAPIEKTISKAKGQPREPQVYTLPPSREEMTKNQVSLTCLVKGFYPSDIAVEWESNGQPENNYKTTPPVLDSDGSFFLYSKLTVDKSRWQQGNVFSCSVLHEALHAHTTRKELSLSP
light: DIQMTQSPSSLSASVGDRVTITCRASEIIYSYLAWYQQKPGKAPKLLIYKAKTHADGVPSRFSGSGSGTDFTFTISSLQPEDIATYYCKHHFGFPRTFGQGTKVEIKRTVAAPSVFIFPPSDEQLKSGTASVVCLLNNFYPREAKVQWKVDNALQSGNSQESVTEQDSKDSTYSLSSTLTLSKADYEKHKVYACEVTHQGLSSPVTKSFNRGEC
B1: no binding (tested: not given) [1]; no binding (tested: not given) [2]; no binding (tested: not given) [3].

B2: H1009/L395-F1974m (H1009-F1974m / L395-k0MT) (antibody)
heavy: QVQLVESGGGLVQPGGSLRLSCAASGFTFSDYYLSWVRQAPGKGLEWVGLIRNKDNYHTPEYSASVKGRFTISRDDSKNSLYLTMSDLKTEDTAVYYCARENHRYDVELAYWGQGTLVTVSSASTKGPSVFPLAPSSKSTSGGTAALGCLVKDYFPEPVTVSWNSGALTSGVHTFPAVLQSSGLYSLSSVVTVPSSSLGTQTYICNVNHKPSNTKVDKKVEPKSCDKTHTCPPCPAPELRRGPSVFLFPPKPKDTLMISRTPEVTCVVVDVSHEDPEVKFNWYVDGVEVHNAKTKPREEQYNSTYRVVSVLTVLHQDWLNGKEYKCKVSNKGLPSSIEKTISKAKGQPREPQVYTLPPSREEMTKNQVSLTCLVKGFYPSDIAVEWESNGQPENNYKTTPPVLDSDGSFFLYSKLTVDKSRWQQGNVFSCSVLHEALHAHTTRKELSLSP
light: DIQMTQSPSSLSASVGDRVTITCRASEIIYSYLAWYQQKPGKAPKLLIYKAKTHADGVPSRFSGSGSGTDFTFTISSLQPEDIATYYCKHHFGFPRTFGQGTKVEIKRTVAAPSVFIFPPSDEQLKSGTASVVCLLNNFYPREAKVQWKVDNALQSGNSQESVTEQDSKDSTYSLSSTLTLSKADYEKHKVYACEVTHQGLSSPVTKSFNRGEC
notes: also called antibody H1009/L395-F1974m
B2: no binding (tested: not given) [1]; no binding (tested: not given) [2]; no binding (tested: not given) [3].

B3: H1009/L395-F1886m (antibody)
heavy: QVQLVESGGGLVQPGGSLRLSCAASGFTFSDYYLSWVRQAPGKGLEWVGLIRNKDNYHTPEYSASVKGRFTISRDDSKNSLYLTMSDLKTEDTAVYYCARENHRYDVELAYWGQGTLVTVSSASTKGPSVFPLAPSSKSTSGGTAALGCLVKDYFPEPVTVSWNSGALTSGVHTFPAVLQSSGLYSLSSVVTVPSSSLGTQTYICNVNHKPSNTKVDKKVEPKSCDKTHTCPPCPAPELLGGPSVFLFPPKPKDTLMISRTPEVTCVVVDVSHEDPEVKFNWYVDGVEVHNAKTKPREEQYNSTYRVVSVLTVLHQDWLNGKEYKCKVSNKALPAPIEKTISKAKGQPREPQVYTLPPSREEMTKNQVSLTCLVKGFYPSDIAVEWESNGQPENNYKTTPPVLDSDGSFFLYSKLTVDKSRWQQGNVFSCSVLHEALHAHTTRKELSLSP
light: DIQMTQSPSSLSASVGDRVTITCRASEIIYSYLAWYQQKPGKAPKLLIYKAKTHADGVPSRFSGSGSGTDFTFTISSLQPEDIATYYCKHHFGFPRTFGQGTKVEIKRTVAAPSVFIFPPSDEQLKSGTASVVCLLNNFYPREAKVQWKVDNALQSGNSQESVTEQDSKDSTYSLSSTLTLSKADYEKHKVYACEVTHQGLSSPVTKSFNRGEC
B3: binds [2]; binds [3].

B4: H89/L118 (H89-IgG1 / L118-k0MT) (antibody, V domains shown)
VH: QVQLVESGGGLVQPGGSLRLSCAASGFTFSDYYLSWVRQAPGKGLEWVGLIRNKANGYTREYSASVKGRFTISRDDSKNSLYLQMSSLKTEDTAVYYCARENHRYDVELAYWGQGTLVTVSS
VL: DIQMTQSPSSLSASVGDRVTITCRASEIIYSYLAWYQQKPGKAPKLLIYHAKTHADGVPSRFSGSGSGTDFTFTISSLQPEDIATYYCKHHFGFPRTFGQGTKVEIKR
notes: also called H0089/L0118
B4 showed a koff (human IL-8 [4]) of 0.0063 s⁻¹, a koff (human IL-8 [5]) of 0.000129 s⁻¹ and a kon (human IL-8 [5]) of 751000 M⁻¹ s⁻¹. For the same binder, the koff (human IL-8 [6]) was 0.00628 s⁻¹, the kon (human IL-8 [6]) was 129000 M⁻¹ s⁻¹ and the koff (human IL-8 [7]) was 0.0039 s⁻¹. It also gave a kon (human IL-8 [7]) of 123000 M⁻¹ s⁻¹, a koff (human IL-8 [8]) of 0.00384 s⁻¹ and a kon (human IL-8 [8]) of 179000 M⁻¹ s⁻¹. The koff (human IL-8 [9]) was 0.000114 s⁻¹, the kon (human IL-8 [9]) was 945000 M⁻¹ s⁻¹ and the koff (human IL-8 [10]) was 2.13e-05 s⁻¹. It also gave a kon (human IL-8 [10]) of 580000 M⁻¹ s⁻¹.

B5: H1009/L395 (H1009-IgG1m / L395-k0MT) (antibody)
heavy: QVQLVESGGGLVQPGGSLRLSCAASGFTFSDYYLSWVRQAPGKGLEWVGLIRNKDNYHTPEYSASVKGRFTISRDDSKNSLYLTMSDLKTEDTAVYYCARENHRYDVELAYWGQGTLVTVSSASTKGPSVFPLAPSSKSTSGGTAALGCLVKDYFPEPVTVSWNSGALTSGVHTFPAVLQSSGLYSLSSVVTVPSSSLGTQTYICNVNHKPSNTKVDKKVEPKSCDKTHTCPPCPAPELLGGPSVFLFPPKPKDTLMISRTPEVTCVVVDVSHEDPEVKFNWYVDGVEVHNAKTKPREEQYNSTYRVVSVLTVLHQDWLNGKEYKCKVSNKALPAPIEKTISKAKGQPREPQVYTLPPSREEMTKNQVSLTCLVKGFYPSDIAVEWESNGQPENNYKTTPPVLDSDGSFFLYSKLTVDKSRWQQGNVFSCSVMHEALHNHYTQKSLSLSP
light: DIQMTQSPSSLSASVGDRVTITCRASEIIYSYLAWYQQKPGKAPKLLIYKAKTHADGVPSRFSGSGSGTDFTFTISSLQPEDIATYYCKHHFGFPRTFGQGTKVEIKRTVAAPSVFIFPPSDEQLKSGTASVVCLLNNFYPREAKVQWKVDNALQSGNSQESVTEQDSKDSTYSLSSTLTLSKADYEKHKVYACEVTHQGLSSPVTKSFNRGEC
notes: also called H1009/L0395
With B5 the koff (human IL-8 [4]) was 0.01 s⁻¹ and the “Ratio of IL-8 Binding Amount (Thermal Acceleration/Initial)” value (human IL-8 [11]) was 0.64.

B6: Hr9/L16 (antibody, human IgG1, kappa, name in Kabat numbering, V domains shown)
VH: QVQLVESGGGLVQPGGSLRLSCAASGFTFSDYYLSWVRQAPGKGLEWVGLIRNKANGYTREYSASVKGRFTISRDDSKNSLYLQMSSLKTEDTAVYYCARENYRYDVELAYWGQGTLVTVSS
VL: DIQMTQSPSSLSASVGDRVTITCRASEIIYSYLAWYQQKPGKAPKLLIYNAKTHADGVPSRFSGSGSGTDFTFTISSLQPEDIATYYCQHHFGFPRTFGQGTKVEIKR
notes: WS4L-k0MT with L54H
With B6 the “KD Ratio (pH 5.8/pH 7.4)” value (human IL-8 [12]) was 46.8, the “Koff Ratio (pH 5.8/pH 7.4)” value (human IL-8 [12]) was 2.1 and the “kon Ratio (pH 7.4/pH 5.8)” value (human IL-8 [12]) was 22.8. It also gave a koff (human IL-8 [8]) of 0.000197 s⁻¹, a kon (human IL-8 [8]) of 39100 M⁻¹ s⁻¹ and a koff (human IL-8 [10]) of 9.57e-05 s⁻¹. It also gave a kon (human IL-8 [10]) of 890000 M⁻¹ s⁻¹.

B7: H1040/L0442 (antibody, human IgG1, kappa, name in Kabat numbering, V domains shown)
VH: QVQLVESGGGLVQPGGSLRLSCAASGFTFSEYYLSWVRQAPGKGLEWVGLIRNKDNHHHPEYSASVKGRFTISRDDSKNSLYLTMSDLKTEDTAVYYCARENHRYDVELAYWGQGTLVTVSS
VL: DIQMTQSPSSLSASVGDRVTITCRASEIIYEYLAWYQQKPGKAPKLLIYKAKTHADGVPSRFSGSGSGTDFTFTISSLQPEDIATYYCKHHFGFPRTFGQGTKVEIKR
notes: L442 = L395 + S31E
Work on B7 yielded a Kd (human IL-8 [4]) of 140 nM, a koff (human IL-8 [4]) of 0.21 s⁻¹ and a Kd (human IL-8 [13]) of 0.34 nM. The “Ratio of IL-8 Binding Amount (Thermal Acceleration/Initial)” value (human IL-8 [11]) was 0.49.
